From patent US20100209436 come the findings set out here.

Series [1] has as its target T1, human OPA1 splice variant 7.
T1 chain: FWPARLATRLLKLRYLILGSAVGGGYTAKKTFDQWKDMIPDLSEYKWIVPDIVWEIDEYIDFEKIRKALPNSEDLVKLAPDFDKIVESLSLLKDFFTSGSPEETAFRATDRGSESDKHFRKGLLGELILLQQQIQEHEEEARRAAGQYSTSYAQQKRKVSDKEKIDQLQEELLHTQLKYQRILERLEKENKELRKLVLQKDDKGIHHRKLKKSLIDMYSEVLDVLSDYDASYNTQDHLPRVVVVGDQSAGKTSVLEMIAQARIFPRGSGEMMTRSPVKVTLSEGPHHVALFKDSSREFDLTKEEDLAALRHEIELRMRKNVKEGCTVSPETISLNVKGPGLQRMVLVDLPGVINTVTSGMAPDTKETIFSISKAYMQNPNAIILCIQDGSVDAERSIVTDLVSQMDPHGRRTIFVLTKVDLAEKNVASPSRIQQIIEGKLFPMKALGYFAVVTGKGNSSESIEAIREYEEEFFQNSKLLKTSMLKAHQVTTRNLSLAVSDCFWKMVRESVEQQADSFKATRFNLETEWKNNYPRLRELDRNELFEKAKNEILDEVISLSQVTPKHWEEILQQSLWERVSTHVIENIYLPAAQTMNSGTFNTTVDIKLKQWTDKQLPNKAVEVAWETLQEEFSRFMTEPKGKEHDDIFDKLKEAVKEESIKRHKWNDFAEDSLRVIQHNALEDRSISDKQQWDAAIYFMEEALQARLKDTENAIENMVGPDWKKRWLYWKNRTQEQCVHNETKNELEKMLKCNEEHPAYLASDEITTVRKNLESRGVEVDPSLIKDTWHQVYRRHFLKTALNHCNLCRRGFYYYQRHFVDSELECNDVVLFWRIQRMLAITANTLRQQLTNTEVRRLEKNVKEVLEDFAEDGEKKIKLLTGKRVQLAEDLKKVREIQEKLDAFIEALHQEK

In series [2] the target is T2, human OPA1 splice variant 4.
T2 chain: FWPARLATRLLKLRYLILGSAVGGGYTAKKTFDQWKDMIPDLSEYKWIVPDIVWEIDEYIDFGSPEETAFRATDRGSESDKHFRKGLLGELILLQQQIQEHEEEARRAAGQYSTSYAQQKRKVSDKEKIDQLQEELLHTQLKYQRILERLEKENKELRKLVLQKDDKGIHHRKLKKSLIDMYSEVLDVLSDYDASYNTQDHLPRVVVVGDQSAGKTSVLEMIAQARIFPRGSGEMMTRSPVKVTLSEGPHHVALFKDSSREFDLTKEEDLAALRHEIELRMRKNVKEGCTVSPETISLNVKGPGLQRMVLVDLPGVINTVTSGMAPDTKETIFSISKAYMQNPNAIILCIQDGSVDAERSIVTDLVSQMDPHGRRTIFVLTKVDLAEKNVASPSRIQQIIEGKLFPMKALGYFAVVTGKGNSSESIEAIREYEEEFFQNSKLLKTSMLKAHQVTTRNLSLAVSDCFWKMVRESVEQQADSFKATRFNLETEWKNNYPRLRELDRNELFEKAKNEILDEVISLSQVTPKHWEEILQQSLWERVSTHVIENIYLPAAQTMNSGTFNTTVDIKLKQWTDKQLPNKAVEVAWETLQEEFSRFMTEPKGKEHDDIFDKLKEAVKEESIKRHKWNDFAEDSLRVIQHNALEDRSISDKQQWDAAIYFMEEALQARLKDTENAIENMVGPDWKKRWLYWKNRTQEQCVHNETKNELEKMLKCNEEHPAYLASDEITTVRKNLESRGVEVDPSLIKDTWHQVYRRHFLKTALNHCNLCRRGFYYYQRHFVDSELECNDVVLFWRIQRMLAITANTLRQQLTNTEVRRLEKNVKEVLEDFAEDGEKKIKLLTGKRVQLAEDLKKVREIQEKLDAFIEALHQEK

The target in series [3] is T3, human OPA1 splice variant 8 (A210V polymorphism).
T3 chain: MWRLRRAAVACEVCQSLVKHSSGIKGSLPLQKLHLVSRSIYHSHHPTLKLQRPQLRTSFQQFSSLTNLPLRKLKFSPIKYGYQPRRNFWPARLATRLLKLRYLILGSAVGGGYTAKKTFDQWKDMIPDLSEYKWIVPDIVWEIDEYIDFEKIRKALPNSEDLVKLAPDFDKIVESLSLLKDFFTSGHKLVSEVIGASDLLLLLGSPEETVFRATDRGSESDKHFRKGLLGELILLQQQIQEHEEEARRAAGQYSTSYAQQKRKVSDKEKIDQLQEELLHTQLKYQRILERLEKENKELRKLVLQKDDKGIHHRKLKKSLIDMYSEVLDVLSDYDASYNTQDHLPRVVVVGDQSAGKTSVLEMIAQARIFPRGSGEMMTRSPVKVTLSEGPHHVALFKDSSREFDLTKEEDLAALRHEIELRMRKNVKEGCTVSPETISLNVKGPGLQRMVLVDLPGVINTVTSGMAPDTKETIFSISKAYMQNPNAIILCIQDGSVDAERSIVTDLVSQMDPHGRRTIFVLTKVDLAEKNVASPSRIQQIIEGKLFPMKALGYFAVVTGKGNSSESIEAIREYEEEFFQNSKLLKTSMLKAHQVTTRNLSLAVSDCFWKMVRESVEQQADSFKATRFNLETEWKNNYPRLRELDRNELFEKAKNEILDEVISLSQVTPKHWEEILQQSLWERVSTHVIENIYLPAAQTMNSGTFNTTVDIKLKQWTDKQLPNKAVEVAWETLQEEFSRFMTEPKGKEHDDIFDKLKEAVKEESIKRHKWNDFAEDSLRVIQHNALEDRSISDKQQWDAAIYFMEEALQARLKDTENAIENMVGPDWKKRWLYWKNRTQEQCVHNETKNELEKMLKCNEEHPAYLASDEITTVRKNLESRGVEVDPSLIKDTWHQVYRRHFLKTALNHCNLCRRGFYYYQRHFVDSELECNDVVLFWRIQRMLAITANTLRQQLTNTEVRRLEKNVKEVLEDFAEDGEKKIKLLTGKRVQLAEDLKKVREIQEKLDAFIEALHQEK

B1: yeast m-AAA protease (subunits Yta10 and Yta12) (protein)
chain 1: MMMWQRYARGAPRSLTSLSFGKASRISTVKPVLRSRMPVHQRLQTLSGLATRNTIHRSTQIRSFHISWTRLNENRPNKEGEGKNNGNKDNNSNKEDGKDKRNEFGSLSEYFRSKEFANTMFLTIGFTIIFTLLTPSSNNSGDDSNRVLTFQDFKTKYLEKGLVSKIYVVNKFLVEAELVNTKQVVSFTIGSVDIFEEQMDQIQDLLNIPPRDRIPIKYIERSSPFTFLFPFLPTIILLGGLYFITRKINSSPPNANGGGGGGLGGMFNVGKSRAKLFNKETDIKISFKNVAGCDEAKQEIMEFVHFLKNPGKYTKLGAKIPRGAILSGPPGTGKTLLAKATAGEANVPFLSVSGSEFVEMFVGVGASRVRDLFTQARSMAPSIIFIDEIDAIGKERGKGGALGGANDEREATLNQLLVEMDGFTTSDQVVVLAGTNRPDVLDNALMRPGRFDRHIQIDSPDVNGRQQIYLVHLKRLNLDPLLTDDMNNLSGKLATLTPGFTGADIANACNEAALIAARHNDPYITIHHFEQAIERVIAGLEKKTRVLSKEEKRSVAYHEAGHAVCGWFLKYADPLLKVSIIPRGQGALGYAQYLPPDQYLISEEQFRHRMIMALGGRVSEELHFPSVTSGAHDDFKKVTQMANAMVTSLGMSPKIGYLSFDQNDGNFKVNKPFSNKTARTIDLEVKSIVDDAHRACTELLTKNLDKVDLVAKELLRKEAITREDMIRLLGPRPFKERNEAFEKYLDPKSNTEPPEAPAATN
chain 2: MLLLSWSRIATKVVRRPVRFRSYYGLTHIKSLHTQYRLLNRLQENKSGNKNEDNNEDAKLNKEIPTDEEVEAIRKQVEKYIEQTKNNTIPANWKEQKRKIDESIRRLEDAVLKQESNRIQEERKEKEEENGPSKAKSNRTKEQGYFEGNNSRNIPPPPPPPPPKPPLNDPSNPVSKNVNLFQIGLTFFLLSFLLDLLNSLEEQSEITWQDFREKLLAKGYVAKLIVVNKSMVKVMLNDNGKNQADNYGRNFYYFTIGSIDSFEHKLQKAQDELDIDKDFRIPVLYVQEGNWAKAMFQILPTVLMIAGIIWLTRRSAQAAGGSRGGIFGLSRSKAKKFNTETDVKIKFKDVAGCDEAKEEIMEFVSFLKEPSRYEKMGAKIPRGAILSGPPGTGKTLLAKATAGEAGVPFYFVSGSEFVEMFVGVGAARVRDLFKTARENAPSIVFIDEIDAIGKARQKGNFSGANDERENTLNQMLVEMDGFTPADHVVVLAGTNRPDILDKALLRPGRFDRHINIDKPELEGRKAIFAVHLHHLKLAGEIFDLKNRLAALTPGFSGADIANVCNEAALIAARSDEDAVKLNHFEQAIERVIGGVERKSKLLSPEEKKVVAYHEAGHAVCGWYLKYADPLLKVSIIPRGQGALGYAQYLPGDIFLLTEQQLKDRMTMSLGGRVSEELHFPSVTSGASDDFKKVTSMATAMVTELGMSDKIGWVNYQKRDDSDLTKPFSDETGDIIDSEVYRIVQECHDRCTKLLKEKAEDVEKIAQVLLKKEVLTREDMIDLLGKRPFPERNDAFDKYLNDYETEKIRKEEEKNEKRNEPKPSTN
Consider B1, for which the “OPA1 processing (western blot, yeast deletion strains)” value in series [1] was “small isoforms did not accumulate in cells lacking the yeast m-AAA protease subunits Yta10 or Yta12”.

B2: homo-oligomeric murine Afg3l1 complex (Yta10 (1-61)-Afg3l1 (25-789)-Myc) (protein)
chain: MMMWQRYARGAPRSLTSLSFGKASRISTVKPVLRSRMPVHQRLQTLSGLATRNTIHRSTQIGGCAGSGGTVWSSVRACGIALQGHLGRCSQQLALQGKLTSFSPRLYSKPPRGFEKFFKNKKNRKSASPGNSVPPKKEPKNAGPGGDGGNRGGKGDDFPWWKRMQKGEFPWDDKDFRSLAVLGAGVAAGFLYFYFRDPGKEITWKHFVQYYLARGLVDRLEVVNKQFVRVIPVPGTTSERFVWFNIGSVDTFERNLESAQWELGIEPTNQAAVVYTTESDGSFLRSLVPTLVLVSILLYAMRRGPMGTGRGGRGGGLFSVGETTAKILKNNIDVRFADVAGCEEAKLEIMEFVNFLKNPKQYQDLGAKIPKGAMLTGPPGTGKTLLAKATAGEANVPFITVNGSEFLEMFVGVGPARVRDMFAMARKHAPCILFIDEIDAIGRKRGRGHLGGQSEQENTLNQMLVEMDGFNSSTNVVVLAGTNRPDILDPALTRPGRFDRQIYIGPPDIKGRSSIFKVHLRPLKLDGSLSKDALSRKLAALTPGFTGADISNVCNEAALIAARHLSPSVQERHFEQAIERVIGGLEKKTQVLQPSEKTTVAYHEAGHAVVGWFLEHADPLLKVSIIPRGKGLGYAQYLPREQFLYTREQLFDRMCMMLGGRVAEQLFFGQITTGAQDDLRKVTQSAYAQIVQFGMSEKLGQVSFDFPRQGETMVEKPYSEATAQLIDEEVRCLVRSAYNRTLELLTQCREQVEKVGRRLLEKEVLEKADMIELLGPRPFAEKSTYEEFVEGTGSLEEDTSLPEGLKDWNKGREEGGTERGLQESPV
For B2, the “OPA1 processing (western blot, Δyta10Δyta12 yeast)” value in series [2] was “Afg3l1 and Afg3l2 complexes mediated processing of OPA1 splice variants 4 and 8 in a similar manner”; in series [1] it was “expression of each of the murine subunits, Afg3l2 or Afg3l1, in Δyta10Δyta12 cells promoted OPA1 processing; the isoform S4 predominantly accumulated in the presence of Afg3l1”; in series [3], “Afg3l1 and Afg3l2 complexes mediated processing of OPA1 splice variants 4 and 8 in a similar manner”.

B3: murine paraplegin expressed alone (Yta10 (1-61)-paraplegin (44-781)) (protein)
chain: MMMWQRYARGAPRSLTSLSFGKASRISTVKPVLRSRMPVHQRLQTLSGLATRNTIHRSTQIAARGTPVGPAAAGGHAPQSLLLRILTPSFEGISGLLLKQHIVPNAVRLWPLSGSTLYFNTSRMKQKNKDNDKPKGKTPEDDEEEKRRKEREDQMYRERLRTLFIIALVMSLLNSLSTSGGSISWADFVNEMLAKGEVQRVQVVPESDVVEVYLHPGAVVFGRPRLALMYRMQVANIDKFEEKLRAAEDELNIESKDRIPVSYKRTGFFGNALYALGMTAVGLAILWYVFRLAGMTGREGGFSAFNQLKMARFTIVDGKTGKGVSFQDVAGMHEAKLEVREFVDYLKSPERFLQLGAKVPKGALLLGPPGCGKTLLAKAVATEAQVPFLAMAGPEFVEVIGGLGAARVRSLFKEARARAPCIVYIDEIDAVGKKRSTSMSGFSNTEEEQTLNQLLVEMDGMGTTDHVIVLASTNRADVLDNALMRPGRLDRHVFIDLPTLQERREIFEQHLKGLKLTQPSSFYSQRLAELTPGFSGADIANICNEAALHAAREGHTSVHTFNFEYAVERVIAGTAKKSKILSKEEQRVVAFHESGHALVGWLLEHTEAVMKVSIAPRTNAALGFSQMLPRDQYLFTKEQLFERMCMALGGRAAEAISFSRVTSGAQDDLRKVTRIAYSMVKQFGMAPSIGPVSFPEAQEGLMGIGRRPFSQGLQQMMDHEAKLLVAKAYRHTEKVLLDNLDKLQALANALLEKEVINYEDIEALIGPPPHGPKKMIAPQKWIDAEKERQASGEEEAPAP
Take B3: the “OPA1 processing (western blot, Δyta10Δyta12 yeast)” value in series [1] is recorded as “Cleavage of OPA1 upon expression of paraplegin alone was not observed”.
